Results published in US20210292393A1 (published 2021).

Assays:
[1] = molecular target: SARS-CoV-2 full-length spike protein on pseudotyped lentivirus (SARS-CoV-2, UniProt P0DTC2 14-1273); assay: cell-based or functional assay
[2] = molecular target: SARS-CoV-2 spike protein (wild type), spike protein trimer (SARS-CoV-2, UniProt P0DTC2 14-1208)
[3] = molecular target: SARS-CoV-2 full length spike protein (wild type) (SARS-CoV-2, UniProt P0DTC2 14-1208)

Binder	Pseudo-neutralization IC50 [1] [µg/mL]	Kd [2] [pM]	binding signal, bead assay (fold over isotype) [3]
anti-SARS-CoV-2 antibody 923 (antibody, V domains shown) VH: EVQLVESGGGVVRPGGSLRLSCAASGFIFDDYDMTWVRQAPGKGLEWVSGISWNGGNTGYADSVKGRFTISRDNAKNSLYLQMNSLRAEDTALYHCAVIMSPIPRYSGYDWAGGAFDIWGQGTMVTVSS VL: SSELTQDPAVSVALGQTVRITCQGDSLRSYYASWYQQKPGQVPILVIYDKNNRPSGIPDRFSGSSSGNTASLTITGAQAEDEADYYCNSRDSSGNAVVFGGGTKLTVL	0.093	35	
anti-SARS-CoV-2 antibody 933 (antibody, V domains shown) VH: QVQLVQSGAEVKKPGASVKVSCKASGYTFTTYDINWVRQATGQGLEWMGWMNPNSGYTDSAQKFQGRVTMTRNTSISTAYMELSSLRSEDTAVYYCASGRGVKTYYFDYWGQGTLVTVSS VL: SYELTQPPSVSVSPGQTASITCSGDKLGDKSACWYQQKPGQSPVLVICQDTKRPSGIPERFSGSNSGNTATLTISGTQAMDEADYYCQAWDSRTVVFGGGTKLTVL	0.022	276	
anti-SARS-CoV-2 antibody 1009 (antibody, V domains shown) VH: QLQLQESGPGLVKPSQTLSLTCTVSGGSISSGSYYWSWIRQPAGKGLEWIGSIYTSGSTYYNPSLKSRVTISVDTSKNQFSLKLSSVTAADTAVYYCARKNWLQGSFDYWGQGTLVIVSS VL: NFMLTQPHSVSESPGKTVTISCTRSSGSIANNYVQWYQQRPGSAPTTVIYEDNQRPSGVPDRFSGSIDSSSNSASLTISGLKTEDEADYYCQSYDTSNHGVFGGGTKLTVL	0.17	168	
anti-SARS-CoV-2 antibody 1098 (antibody, V domains shown) VH: DVQLVQSGAEVKKPGESLKISCKGSGYRFTSYWIAWVRQMPGKGLEWMGIIYPGDSDTRYSPSFQGQVTISADKSISTAYLQWSSLKASDTAMYYCASQAAAGYFYYMDVWGKGTTVTVSS VL: not shown	0.087	173	
anti-SARS-CoV-2 antibody 1118 (antibody, V domains shown) VH: EVQLVESGGGLVQPGGSLRLSCAASGFRFSNYEMNWVRQAPGKGLEWVSYISSTGGSIFYADSVKGRFTISRGDAKNSVYLQMNSLRAEDTAVYYCARAMYYYGSGTLDYWGQGTLVTVSS VL: DIQMTQSPSSLSASVGDRVTITCRASQSISRFLNWYQQKPGTAPKLLIYDVSSLQSGVPTRFSGSGSGTDFTLTISSLQPEDFATYYCQQSYTTPPAFGPGTRVDIK	0.026	223	
anti-SARS-CoV-2 antibody 1203 (antibody, V domains shown) VH: QLRLQESGPGLVKPSETLSLTCTVSGGSISSSNFYWGWIRQPPGKGLEWIGSIYYSGSTHYNPSLKSRVTVSVDTSKNQFSLKLSSVTAADTAVYYCARLTYYYDSSGFIRAEPFDYWGQGILVTVSS VL: not shown	0.02	302	
antibody 288 (antibody, V domains shown) VH: EVQLVESGGGLVQPGGSLRLSCAASGFTFSSYDMHWVRQATGKGLEWVSAIGTAGDTYYPGSVKGRFTISRENAKNSLYLQMNSLRAGDTAVYYCARGANRDYDILTGYYSYYYYGMDVWGQGTTVTVSS VL: not shown			495
antibody 290 (antibody, V domains shown) VH: QVHLVQSGAEVKKPGASVKVSCAASGYTFNNYGVSWVRQAPGQGLEWMGWISASNGNTKYAQNLQGRVTMTTDTSTSTAYMELRSLRSDDTAVYYCARDLVGPTAPNYYYGMDVWGQGTAVTVSS VL: QSVLTQPPSVSGAPGQRVTISCTGSSSSIGAGYDVHWYQQLPGTAPKLLIYANSNRPSGVPDRLSGSKSGTSASLAITGLQAEDEADYYCQSYDSSLSGYVFGTGTKVTVL			1.16
antibody 294 (antibody, V domains shown) VH: EVQLVESGGGLVQPGGSLRLSCAASGFTVSSNYMNWVRQAPGKGLEWVSVIYSGGSTYYADSVKGRFTISRDNSKNTLYLQMNSLRAEDTAVYYCARDLGPSGMDVWGQGTTVTVSS VL: DIQMTQSPSSVSASVGDRVTITCRASQGISSWLAWYQQKPGKAPKLLIYAASSLQSGVPSRFSGSGSGTDFTLTISSLQPEDFATYYCQQANSFPLFGGGTKVEIK			1230
antibody 295 (antibody, V domains shown) VH: QVQLQESGPGLVKPSQTLSLTCTVSGGSISSSDYYWSWIRQPPGKGLEWIGYIYYSGSTYYNPSLKSRVTISVDTSKNQFSLKLSSVTAADTAVYYCARVVGYCSSTSCYVDYWGQGTLVTVSS VL: EIVLTQSPATLSLSPGERVTLSCRASQSVSSYLAWYQQKPGQAPRLLIYDASNRATGIPARFSGSGSGTDFTLTISSLEPEDFAVYYCQQRSNWPPGLTFGGGTKVEIK			599
antibody 299 (antibody, V domains shown) VH: not shown VL: EIVLTQSPATLSLSPGERATLSCRASQSVSSYLAWYQQKPGQAPRLLIYDASNRATGIPARFSGSGSGTDFTLTISSLEPEDFAVYYCQQRSNWPWTFGQGTKVEIK			1.43
antibody 300 (antibody, V domains shown) VH: QVQLVESGGGVVQPGRSLTLSCAASGFTFSSYAMHWVRQAPGKGLEWVALISYDGNNKYYADSVKGRFTFSRDNSKNTLYLQMNSLRAEDTAVYYCARTNSGSYRTAFDYWGQGTLVTVSS VL: DIQMTQSPSTLSASVGDRVTITCRASQSISIWLAWYQQKPGKAPKLLIYKASSLESGVPSRFSGSGSGTEFTLTISSLQPDDFATYYCQQYNSLWTFGQGTKVEIK			721
antibody 301 (antibody, V domains shown) VH: QVQLVQSGAEVKKPGASVKVSCKVSGYTLTELSMHWVRQAPGKGLEWMGGFDPEDGETIYAQKFQGRVTMTEDTSTDTAYMELSSLRSEDTAVYYCATAFCGGDCYPPDALDIWGQGTMVTVSS VL: DIQMTQSPSSVSASVGDRVTITCRASQGISSWLAWYQQKPGKAPKLLIYAASSLQSGVPSRFSGSGSGTDFTLTISSLQPEDFATYYCQQANSFPLTFGGGTKVEIK			865
antibody 266 (antibody, V domains shown) VH: QVQLVESGGGVVQPGRSLRLSCAASGFNLSNYAMHWVRQPSGKGLEWVSLISYDGSIKYYTDSVKGRFTVSGDNSKNTLFLQMNSLRPDDSALYYCVRGGVSGPNSFDMWGQGTTVTVSS VL: DVVMTQSPLSLPVTLGQPASISCRSSQSLVYSDGNTYVNWFQQRPGQSPRRLIYQVSIRASGVPDRFSGSGSGTDFALKISRVEAEDVGVYYCMQGTHWPVTFGQGTKVEIK			473
antibody 303 (antibody, V domains shown) VH: QVQLVESGGGVVQPGRSLRLSCAASGFNLSSYAMHWVRQASGKGLEWVSLISYDGSIKYYADSVKGRFTVSGDNSKNMLFLQMNSLRADDSALYYCVRGGVSGPNAFDIWGQGTTVTVSS VL: not shown			341
antibody 260 (antibody, V domains shown) VH: EVQLVESGGGLVQPGRSLRLSCAASGFTFDYYAMHWVRQAPGKGLEWVSGISWNSGTIGYADSVKGRFTISRDNAKNSLYLQMNSLRAEDTALYYCAKDSRPSGRYYYGMDVWGQGTTVTVSS VL: not shown			724
antibody 263 (antibody, V domains shown) VH: EVQLVQSGAEVKKPGATVKISCKVSGYTFTDYYMHWVQQAPGKGLEWMGLVDPEDGETIYAEKFQGRVTITADTSTDTAYMELSSLRSDDTAVYYCTTDLAFTIFGGRRGFDPWGQGTLVTVSS VL: DIQLTQSPSFLSASVGDRVTITCRASQGISSYLAWYQQKPGKAPKLLIYAASTLQSGVPSRFSGSGSGTEFTLTISSLQPEDFATYYCQQLNSYDFGQGTRLEIK			722
